Experiments:
Experiment in all cases: co-IP with T7-LC3C in HEK293T
HSP90AB1-HA = biological target: T1, HSP90AB1-HA (Homo sapiens (Human), UniProt P08238 2-724)
T1 construct: Plasmid pCDNA3-HSP90AB1-HA (addgene 22487); not shown: C-terminal HA tag
Protocol: (§1) The data are representative of three independent experiments. [0146] […] The data are representative of three independent experiments. [0147] […] The data are representative of three independent experiments. [0148] […] The interaction of the peptides with T7-GABARAP or T7-GABARAPL1 proteins was analyzed by in vitro pull-down. The data are representative of three independent experiments. [0149] […] The data are representative of three independent experiments. [0150] […] [0151] (K) Quantification of Q103-HTT-GFP area/DAPI area (mean±SEM) as shown in [0152] (J). 48 h represents IB accumulation stage and 72 h represents clearance stage. P values are indicated (two-tailed t test, >20 views from three independent experiments). [0153] […] The data are representative of three independent experiments. [0154] […] The data are representative of three independent experiments. [0155] […] The data are representative of three independent experiments.
(§2) Co-immunoprecipitation was performed essentially as described before. In brief, 24 h after transfection, the cells were collected and lysed on ice for 30 min in co-IP buffer (50 mM Tris/HCl pH 7.4, 150 mM NaCl, 1 mM EDTA, 0.5% NP40) with protease inhibitor mixture, and the lysates were cleared by centrifugation. The resulting supernatants were incubated with indicated agarose or magnetic beads and rotated at 4° C. for 3 h. The agarose was washed five times with co-IP buffer.

HA-CCT8 = biological target: T2, HA-CCT8 (human, UniProt P50990 2-548)
T2 construct: not shown: N-terminal HA tag
T2 sequence (looked up): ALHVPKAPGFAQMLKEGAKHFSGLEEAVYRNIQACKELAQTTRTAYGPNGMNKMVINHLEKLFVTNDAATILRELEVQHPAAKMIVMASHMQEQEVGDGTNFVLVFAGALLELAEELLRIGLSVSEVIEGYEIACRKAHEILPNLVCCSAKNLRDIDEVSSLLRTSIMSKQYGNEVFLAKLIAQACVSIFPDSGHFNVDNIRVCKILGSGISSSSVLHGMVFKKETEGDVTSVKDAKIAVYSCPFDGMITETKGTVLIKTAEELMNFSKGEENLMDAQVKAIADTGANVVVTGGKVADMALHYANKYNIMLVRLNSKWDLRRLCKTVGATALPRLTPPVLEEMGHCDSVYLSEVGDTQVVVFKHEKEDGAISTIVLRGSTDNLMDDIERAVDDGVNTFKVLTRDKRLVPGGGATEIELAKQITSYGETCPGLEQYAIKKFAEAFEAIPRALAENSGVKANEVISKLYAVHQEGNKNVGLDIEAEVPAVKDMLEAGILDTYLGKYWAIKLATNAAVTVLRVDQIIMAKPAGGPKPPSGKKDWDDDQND
Protocol: as §1, §2

HSPA9-HA = biological target: T3, HSPA9-HA (Homo sapiens (Human), UniProt P38646 1-679, limits assumed)
T3 construct: Plasmid pCMV3-HSPA9-HA (SinoBiological HG16926-CY); also called long-form of HSPA9; not shown: C-terminal HA tag
Protocol: as §1, §2

HA-CCT1 = biological target: T4, HA-CCT1 (human, UniProt P17987 1-556)
T4 construct: Amplified from HEK293T cDNA; not shown: N-terminal HA tag
Protocol: as §1, §2

HA-CCT5 = biological target: T5, HA-CCT5 (human, UniProt P48643 2-541)
T5 construct: not shown: N-terminal HA tag
Protocol: as §1, §2

HA-CCT3 = biological target: T6, HA-CCT3 (human, UniProt P49368 1-545)
T6 construct: Amplified from HEK293T cDNA; not shown: N-terminal HA tag
T6 sequence: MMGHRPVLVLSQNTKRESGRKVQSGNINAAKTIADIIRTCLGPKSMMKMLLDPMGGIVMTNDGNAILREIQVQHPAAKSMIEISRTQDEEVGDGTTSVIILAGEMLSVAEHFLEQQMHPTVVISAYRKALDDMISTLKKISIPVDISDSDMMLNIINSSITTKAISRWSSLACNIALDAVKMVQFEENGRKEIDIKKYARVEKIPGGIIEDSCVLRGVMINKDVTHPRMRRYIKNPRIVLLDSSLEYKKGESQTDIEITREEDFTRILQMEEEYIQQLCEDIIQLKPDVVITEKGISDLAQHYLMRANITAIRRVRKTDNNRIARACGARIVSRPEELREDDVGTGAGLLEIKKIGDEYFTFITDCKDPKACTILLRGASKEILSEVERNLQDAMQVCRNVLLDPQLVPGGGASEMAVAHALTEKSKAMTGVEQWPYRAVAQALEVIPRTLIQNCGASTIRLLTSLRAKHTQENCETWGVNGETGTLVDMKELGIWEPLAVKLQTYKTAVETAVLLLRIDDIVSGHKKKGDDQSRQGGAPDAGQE
Protocol: as §1, §2

T1 sequence (P08238 2-724 limits assumed): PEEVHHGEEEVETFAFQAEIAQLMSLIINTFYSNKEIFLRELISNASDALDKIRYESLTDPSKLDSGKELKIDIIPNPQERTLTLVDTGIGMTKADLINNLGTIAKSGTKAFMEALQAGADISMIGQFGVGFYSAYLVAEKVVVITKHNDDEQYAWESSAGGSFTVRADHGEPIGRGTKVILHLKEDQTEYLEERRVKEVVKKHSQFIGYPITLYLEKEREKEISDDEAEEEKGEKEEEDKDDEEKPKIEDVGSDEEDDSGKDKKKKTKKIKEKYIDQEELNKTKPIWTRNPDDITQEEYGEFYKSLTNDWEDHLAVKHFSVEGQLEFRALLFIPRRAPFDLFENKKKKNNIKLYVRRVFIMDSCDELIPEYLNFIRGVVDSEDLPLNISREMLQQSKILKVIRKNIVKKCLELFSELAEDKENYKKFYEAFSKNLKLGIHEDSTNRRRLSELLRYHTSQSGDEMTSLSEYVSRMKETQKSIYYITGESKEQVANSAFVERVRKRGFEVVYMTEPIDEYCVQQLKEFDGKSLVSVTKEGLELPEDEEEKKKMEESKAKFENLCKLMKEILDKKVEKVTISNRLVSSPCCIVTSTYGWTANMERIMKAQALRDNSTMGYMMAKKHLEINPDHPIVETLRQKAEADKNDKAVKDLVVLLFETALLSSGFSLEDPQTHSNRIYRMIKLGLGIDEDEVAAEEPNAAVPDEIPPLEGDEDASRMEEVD
T5 sequence (P48643 2-541 limits assumed): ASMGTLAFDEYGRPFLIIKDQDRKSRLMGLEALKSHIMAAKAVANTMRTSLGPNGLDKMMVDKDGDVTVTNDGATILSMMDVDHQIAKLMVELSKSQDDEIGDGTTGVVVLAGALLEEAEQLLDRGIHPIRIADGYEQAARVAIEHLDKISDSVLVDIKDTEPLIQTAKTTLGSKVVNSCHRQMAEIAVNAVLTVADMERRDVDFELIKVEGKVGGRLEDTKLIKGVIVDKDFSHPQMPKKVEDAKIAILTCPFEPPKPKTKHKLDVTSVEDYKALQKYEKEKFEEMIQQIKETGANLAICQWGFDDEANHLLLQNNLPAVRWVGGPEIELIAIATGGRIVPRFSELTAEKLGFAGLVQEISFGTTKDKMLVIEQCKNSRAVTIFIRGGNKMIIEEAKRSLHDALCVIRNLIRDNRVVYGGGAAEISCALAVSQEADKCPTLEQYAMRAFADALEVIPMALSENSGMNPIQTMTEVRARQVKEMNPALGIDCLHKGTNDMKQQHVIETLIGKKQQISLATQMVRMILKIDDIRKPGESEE
T3 sequence (P38646 whole entry): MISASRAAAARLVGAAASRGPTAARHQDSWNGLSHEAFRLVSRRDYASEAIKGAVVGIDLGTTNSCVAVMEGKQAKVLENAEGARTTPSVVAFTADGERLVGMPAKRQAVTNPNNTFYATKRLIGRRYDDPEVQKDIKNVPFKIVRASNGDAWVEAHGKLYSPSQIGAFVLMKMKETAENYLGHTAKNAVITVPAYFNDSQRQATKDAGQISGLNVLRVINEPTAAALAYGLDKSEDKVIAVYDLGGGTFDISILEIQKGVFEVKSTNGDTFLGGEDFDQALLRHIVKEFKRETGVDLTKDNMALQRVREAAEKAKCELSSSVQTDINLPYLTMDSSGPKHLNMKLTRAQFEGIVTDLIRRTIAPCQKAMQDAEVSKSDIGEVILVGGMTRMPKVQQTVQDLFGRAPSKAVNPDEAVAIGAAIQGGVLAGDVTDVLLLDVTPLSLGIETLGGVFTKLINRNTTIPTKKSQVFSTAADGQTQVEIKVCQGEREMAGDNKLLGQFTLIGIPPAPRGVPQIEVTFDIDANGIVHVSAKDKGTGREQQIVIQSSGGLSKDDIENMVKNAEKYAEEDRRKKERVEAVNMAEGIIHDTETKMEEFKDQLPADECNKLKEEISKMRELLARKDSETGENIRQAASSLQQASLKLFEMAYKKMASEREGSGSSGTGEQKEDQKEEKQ
T4 sequence (P17987 whole entry): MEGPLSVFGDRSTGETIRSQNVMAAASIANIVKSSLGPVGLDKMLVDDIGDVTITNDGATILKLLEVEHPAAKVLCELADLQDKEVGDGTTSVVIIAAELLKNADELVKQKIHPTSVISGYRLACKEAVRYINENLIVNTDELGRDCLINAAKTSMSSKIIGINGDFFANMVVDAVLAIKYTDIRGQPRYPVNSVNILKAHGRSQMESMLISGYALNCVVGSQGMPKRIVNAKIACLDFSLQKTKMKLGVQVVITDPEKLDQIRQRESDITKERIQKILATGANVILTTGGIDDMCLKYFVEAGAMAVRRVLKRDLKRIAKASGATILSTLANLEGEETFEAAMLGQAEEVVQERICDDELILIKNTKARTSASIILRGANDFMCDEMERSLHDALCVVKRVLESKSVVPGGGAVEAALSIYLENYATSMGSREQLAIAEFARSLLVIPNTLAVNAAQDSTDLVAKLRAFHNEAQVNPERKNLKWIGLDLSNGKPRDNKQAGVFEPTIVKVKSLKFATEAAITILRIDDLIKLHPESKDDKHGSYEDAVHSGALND

B1: T7-LC3C (expressed in cells) (other, UniProt Q9BXW4 1-126, looked up)
chain: MPPPQKIPSVRPFKQRKSLAIRQEEVAGIRAKFPNKIPVVVERYPRETFLPPLDKTKFLVPQELTMTQFLSIIRSRMVLRATEAFYLLVNNKSLVSMSATMAEIYRDYKDEDGFVYMTYASQETFG
notes: Expressed from pCDNA3-T7-LC3C; not shown: T7 tag
HSP90AB1-HA
  binding result: no binding
HA-CCT8
  binding result: no binding
HSPA9-HA
  binding result: binds
HA-CCT1
  binding result: binds
HA-CCT5
  binding result: no binding
HA-CCT3
  binding result: binds
